Measurements as given in PMC2920069, “KTN (RCK) Domains Regulate K^+ Channels and Transporters by Controlling the Dimer-Hinge Conformation” (Structure(London, England:1993), 2009).

B1: KefC-CTD:KefF fusion protein (complex, E. coli)
chain: RVIIAGFGRFGQITGRLLLSSGVKMVVLDHDPDHIETLRKFGMKVFYGDATRMDLLESAGAAKAEVLINAIDDPQTNLQLTEMVKEHFPHLQIIARARDVDHYIRLRQAGVEKPERETFEGALKTGRLALESLGLGPYEARERADVFRRFNIQMVEEMAMVENDTKARAAVYKRTSAMLSEIITEDREHLSLIQRHGWQGTEEGKHTGNMADEPETKPSSTSGGLVPRGSSGMILIIYAHPYPHHSHANKRMLEQARTLEGVEIRSLYQLYPDFNIDIAAEQEALSRADLIVWQHPMQWYSIPPLLKLWIDKVFSHGWAYGHGGTALHGKHLLWAVTTGGGESHFEIGAHPGFDVLSQPLQATAIYCGLNWLPPFAMHCTFICDDETLEGQARHYKQRLLEWQEAHHG
notes: synthetic flexible 12-residue linker with a thrombin motif that is not cleaved under the conditions used; KefF, ancillary subunit of the E. coli KefC system, full length; pET-28-derived vector; tag removed with thrombin overnight at 4 °C; also called KefC-CTD/KefF complex; fusion complex; source: E. coli BL21(DE3), purified (Ni-NTA with imidazole gradient, Superdex 200 gel filtration); not shown: …
B2: full-length recombinant KefC (natural protein, E. coli, UniProt P03819 1-620, looked up)
chain: MDSHTLIQALIYLGSAALIVPIAVRLGLGSVLGYLIAGCIIGPWGLRLVTDAESILHFAEIGVVLMLFIIGLELDPQRLWKLRAAVFGCGALQMVICGGLLGLFCMLLGLRWQVAELIGMTLALSSTAIAMQAMNERNLMVTQMGRSAFAVLLFQDIAAIPLVAMIPLLATSSASTTMGAFALSALKVAGALVLVVLLGRYVTRPALRFVARSGLREVFSAVALFLVFGFGLLLEEVGLSMAMGAFLAGVLLASSEYRHALESDIEPFKGLLLGLFFIGVGMSIDFGTLLENPLRIVILLLGFLIIKIAMLWLIARPLQVPNKQRRWFAVLLGQGSEFAFVVFGAAQMANVLEPEWAKSLTLAVALSMAATPILLVILNRLEQSSTEEAREADEIDEEQPRVIIAGFGRFGQITGRLLLSSGVKMVVLDHDPDHIETLRKFGMKVFYGDATRMDLLESAGAAKAEVLINAIDDPQTNLQLTEMVKEHFPHLQIIARARDVDHYIRLRQAGVEKPERETFEGALKTGRLALESLGLGPYEARERADVFRRFNIQMVEEMAMVENDTKARAAVYKRTSAMLSEIITEDREHLSLIQRHGWQGTEEGKHTGNMADEPETKPSS
notes: E. coli KefC glutathione-gated K+ efflux system, full length; Blue native PAGE was done without KefF; Also used here as the wild-type KefC of the efflux experiments (plasmids pSM12 and pKefFKefCHis6 in E. coli MJF335); also called whole KefC channels; source: E. coli, overexpressed, bacterial membranes solubilized with 1.5% dodecylmaltoside

Columns and labels:
[1] = molecular target: the molecule itself; experiment: SEC-MALS; size exclusion chromatography with in-line MiniDAWN TREOS light scattering and refractive index detection; 50 mM HEPES pH 7.5, 150 mM KCl, 1 mM DTT or TCEP; with and without GSH, S-lactoyl-GSH or N-ethylsuccinimido-S-glutathione and NAD+ or NADH (1 mM)
[2] = molecular target: the molecule itself; experiment: native gel or EMSA; blue native PAGE (Novex 4-16% BisTris) of membranes solubilized with 1.5% dodecylmaltoside, without KefF; western blot with anti-His6; factor 1.8 for true mass:mobility-based mass

Protein | stoichiometry N [1] | stoichiometry N [2]
B1 | 2 | 
B2 |  | 2
